Results: patent US7384632B2, “Agonist anti-trk-C monoclonal antibodies” (Genentech, Inc., priority 2000, dated 2008)
Read-outs that look alike come from different tables or passages of the source.

Assays:
[1] = target: T1, p75^NTR (LNGFR, p75) (Homo sapiens, UniProt P08138); conditions: equilibrium binding studies, neurotrophin-responsive neurons; cited from earlier work
T1 construct: host or cells: neurotrophin-responsive neurons
T1 sequence (P08138 29-427): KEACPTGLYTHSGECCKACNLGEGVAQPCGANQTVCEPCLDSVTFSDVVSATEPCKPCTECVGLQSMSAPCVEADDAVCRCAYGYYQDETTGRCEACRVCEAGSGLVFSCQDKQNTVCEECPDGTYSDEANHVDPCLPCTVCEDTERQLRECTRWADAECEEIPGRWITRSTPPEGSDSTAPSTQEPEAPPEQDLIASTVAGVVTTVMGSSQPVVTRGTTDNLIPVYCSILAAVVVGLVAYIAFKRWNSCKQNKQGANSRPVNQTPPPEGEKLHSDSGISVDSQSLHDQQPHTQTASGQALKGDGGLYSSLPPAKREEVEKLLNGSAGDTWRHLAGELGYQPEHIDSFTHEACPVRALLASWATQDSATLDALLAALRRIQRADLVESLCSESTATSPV

[2] = system: cisplatinum induced neuropathy; test: Cisplatinum induced neuropathy in adult rats, H-wave sensory conduction velocity; assay type: in vivo, rat; conditions: 1 mg/kg three times per week subcutaneously for four weeks, continued cisplatinum
Procedure: In order to create an animal model of cisplatinum induced neuropathy, adult rats were dosed with cisplatinum twice a week for sixteen weeks with 1 mg/kg intraperitoneally (IP). At this point, rats were split into four groups. All four groups continued receiving cisplatinum twice weekly. […] The NT-3 doses were given subcutaneously, while the Mabs and saline were administered IV. This treatment regime was continued for an additional four weeks, for a total of twenty weeks of cisplatinum administration.

[3] = system: pyridoxine toxicity; conditions: cited from earlier work
[4] = system: cisplatin sensory neuropathy; conditions: rats, cited from earlier work
[5] = target: T2, trkC L286H (Homo sapiens, UniProt Q16288, L317H/S70N); test: Binding to trkC single amino acid mutants (EC50 ratio); conditions: NB = no binding observed
T2 construct: made in house
Description: (§1) Site-directed mutagenesis approach was used to determine the contribution of selected individual amino acid residues of domain 5 in the recognition by anti-trkC antibodies. […] A total of 26 single amino acid mutations were made and evaluated for their effect on binding to anti-trkC monoclonal antibodies. The values shown in Table 5 represent the ratio of binding to anti-trkC antibody of mutant vs wildtype trkC.

[6] = target: T3, trkC R285A (Homo sapiens, UniProt Q16288, R316A/S70N); test: as above; conditions: NB = no binding observed
T3 construct: made in house
Description: as §1

[7] = target: T4, trkC L284E (Homo sapiens, UniProt Q16288, L315E/S70N); test: as above; conditions: NB = no binding observed
T4 construct: made in house
Description: as §1

[8] = target: T5, trkC E287K (Homo sapiens, UniProt Q16288, E318K/S70N); test: as above; conditions: NB = no binding observed
T5 construct: made in house
Description: as §1

[9] = target: wildtype trkC (Homo sapiens, UniProt Q16288, S70N); test: as above; conditions: wildtype trkC (reference)
Description: as §1

[10] = system: trkC N335A; parameters: species or system human; conditions: NB = no binding observed
Description: (§2) A total of 26 single amino acid mutations were made and evaluated for their effect on binding to anti-trkC monoclonal antibodies.

[11] = target: gD-trkC (Homo sapiens, UniProt Q16288); test: BIAcore surface plasmon resonance (SPR) affinity; assay type: binding
Procedure: Affinities of anti-trkC agonist monoclonal antibodies were determined using BIAcore-2000™ surface plasmon resonance (SPR) system (BIAcore, Inc., Piscataway, N.J.). CM5 biosensor chips were activated with N-ethyl-N′-(3-dimethylaminopropyl)-carbodiimide hydrochloride (EDC) and N-hydroxysuccinimide (NHS) according to the supplier's instructions. In the first series of binding experiments, the antigen, gD-tagged trkC, was diluted into 10 mM sodium acetate buffer (pH 4.8), and injected over the activated chip at a concentration of 0.09 mg/mL. Using variable exposure times, four ranges of antigen density were achieved: 14,000-17,000 response units (RU), 7000-9000 RU, 2000-3000 RU, and 400-600 RU. The chip was blocked with ethanolamine.
In the first series of kinetic measurements, anti-trkC antibodies (IgG's) were diluted into running buffer (PBS containing 0.05% Tween-20 and 0.01% sodium azide) and 0.03 mL (667 nM) was injected over the biosensor chip at 25° C. at a flow rate of 0.01 mL/min.
In a second series of experiments, the IgG's (0.1 mg/mL in 10 mM sodium acetate, pH 4.8) were immobilized as described above, except that antibody density was limited to 1000-2000 RU. Two-fold serial dilutions of gD-trkC in the range of […] to 29 nM were then injected over the biosensor chip for kinetics measurements as described above.
The dissociation phase of each kinetic curve were fit to a single exponential dissociation rate (koff), and these rates were used in the calculation of the association rate (kon) from the injection phase, using a simple 1:1 Langmuir binding model (Lofas & Johnsson, 1990).
Equilibrium dissociation constants, Kd's, from SPR measurements were calculated as the ratio koff/kon.
The affinities of anti-trkC antibodies for gD-trkC were measured in SPR kinetics experiments with either antigen or antibody immobilized. Apparent affinities determined from experiments using low densities of immobilized antigen (0.4 to 0.6 ng/mm2), were generally consistent with those determined in experiments using immobilized IgG (see Table 2). […] In some cases, no binding could be detected when trkC was injected over immobilized IgG. This may have occurred because immobilization of the IgG led to steric blocking of the antigen-binding site.

[12] = target: T6, trkC H318A (Homo sapiens, UniProt Q16288, H349A/S70N); test: Binding to trkC single amino acid mutants (EC50 ratio)
T6 construct: made in house
Description: as §2

[13] = gD-trkC binding to immobilized IgG's (1000-3000 RU)

NGF: nerve growth factor, first identified member of the neurotrophin family
Kd [1]: 2 nM

NT-3: neurotrophin-3, the natural ligand of trkC receptor; positive control and comparator
sensory conduction velocity (H-wave) [2]: improvement of this lowered conduction velocity | behavioral and electrophysiological sequelae of pyridoxine toxicity (beam-walking, H waves) ([3]; NT-3 5-20 mg/kg/day, s.c., during chronic pyridoxine treatment): largely attenuated | degeneration of sensory fibers in the dorsal column of the spinal cord ([3]; NT-3 administration during chronic pyridoxine treatment): prevented degeneration of sensory fibers in the dorsal column of the spinal cord | cytoplasmic distribution of neurofilament protein in large sensory neurons and numbers of myelinated fibers in sural nerves ([4]; cisplatin): corrected | H-reflex-related sensory nerve conduction velocity reduced by cisplatin [4]: restored to normal levels

B1: BDNF: brain-derived neurotrophic factor, a neurotrophin (protein, UniProt P23560 19-247, looked up)
Neurotrophic factor BDNF …: APMKEANIRGQGGLAYPGVRTHGTLESVNGPKAGSRGLTSLADTFEHVIEELLDEDQKVRPNEENNKDADLYTSRVMLSSQVPLEPPLLFLLEEYKNYLDAANMSMRVRRHSDPARRGELSVCDSISEWVTAADKKTAVDMSGGTVTVLEKVPVSKGQLKQYFYETKCNPMGYTKEGCRGIDKRHWNSQCRTTQSYVRALTMDSKKRIGWRFIRIDTSCVCTLTIKRGR
Kd [1]: 2 nM

B2: Mab 2250: murine IgG1 agonist anti-trkC monoclonal antibody; hybridoma ATCC PTA-2149; heavy chain SEQ ID NO: 42, light chain SEQ ID NO: 49 (antibody)
heavy: NQVQLQQSGAELMQPGASVKISCKSTGYTFSNFWIEWVKQRPGHGLEWIGEILPGSDNTNYNEKFKGKATFTADTSSNTAYMQLSSLTSEDSAVYYCARKNRNYYGNYVVWGQGTLVTVSAC
light: NDIVMTQSPASLAVSLGQRATISYRASKSVSTSGYSYMHWNQQKPGQPPRLLIYLVSNLESGVPARFSGSGSGTDFTLNIHPVEEEDAATYYCQHIRELTRSARGQSWKKRC
modifications: Murine
ratio of binding of mutant vs wildtype trkC (EC50 divided by EC50 of wildtype trkC) [5]: 0.4 | ratio of binding of mutant vs wildtype trkC (EC50 divided by EC50 of wildtype trkC) [6]: 2.6 | ratio of binding of mutant vs wildtype trkC (EC50 divided by EC50 of wildtype trkC) [7]: 0.6 | ratio of binding of mutant vs wildtype trkC (EC50 divided by EC50 of wildtype trkC) [8]: 0.8 | ratio of binding of mutant vs wildtype trkC (EC50 divided by EC50 of wildtype trkC) [9]: 1.0 | ratio of binding of mutant vs wildtype trkC (EC50 divided by EC50 of wildtype trkC) [10]: 0.5 | Kd ([11]; IgG's binding to immobilized gD-trkC (400-600 RU), read-out: Kd, Immobilized gD-trkC): 8.7 nM | Kd ([11]; Table 3, read-out: Affinity Kd): 8.7 nM | Kd ([11]; gD-trkC binding to immobilized IgG's (1000-3000 RU), read-out: Kd, Immobilized IgG): 28 nM | ratio of binding of mutant vs wildtype trkC (EC50 divided by EC50 of wildtype trkC) [12]: 1.0

B3: Mab 2345: human IgG2 agonist anti-trkC monoclonal antibody; hybridoma ATCC PTA-2146; heavy chain SEQ ID NO: 47, light chain SEQ ID NO: 54 (antibody, listed as Homo sapiens, V domains shown)
VH: NQVQLQESGPGLVKPSQTLSLTCTVSGGSISSGGYYWSWIRQHPEKGLEWIGYIFYSGRTYYNPSLKSRVTISVDTSKNQFSLKLNSVTAADTAVYYCARERIAAAGADYYYNGLDVWGQGTTVTVSSC
VL: NEIVLTQSPGTLSLSPGERATLSCRASQSVSSNYLTWYQQKPGQAPRLLIYGASSRATGIPDRFSGSGSGTDFTLTISRLEPEDFAVYYCQQYGRSPPITFGQGTRLEIKRC
Kd, Immobilized IgG [11, 13]: NDB

B4: Mab 2349: human IgG4 agonist anti-trkC monoclonal antibody; hybridoma ATCC PTA-2153; heavy chain SEQ ID NO: 48, light chain SEQ ID NO: 55 (antibody, listed as Homo sapiens, V domains shown)
VH: NQVQLQESGPGLVKPSQTLSLTCTVSGGSISSGYYYWSWIRQHPGKGLEWIGYIYYSGSTYYNPSLKSRLTISVDTSKNQFSLKLSSVTAADTAVYYCARERIAAAGTDYYYNGLAVWGQGTTVTVSSC
VL: NGIVLTQSPGTLSLSPGERATFSCRASQSGSSTYLAWYQQKPGQAPRLLIYGASSRATGIPDRFSGSGSGTDFTLTISRLEPEDFAVYYCQQYGRSPPITFGQGTRLEIKRC
Kd, Immobilized IgG [11, 13]: NDB
